From paper PMC13645619

Tests used:
[1] = molecular target: AP-7-168-stabilized β2AR dimer (construct PN1) (UniProt P07550); test: BLI
[2] = molecular target: β2-adrenergic receptor (β2AR), construct PN1, monomeric (UniProt P07550); test: BLI

Kd [1]: 3110 nM
Kd [2]: 1710 nM
Substance: heterotrimeric Gs (Gαsβ1γ2) (from UniProt P63092;P62873;P59768) (complex)
